Results on one molecule are retold here after PMC7144476 (Molecular plant, 2015).

The assay addresses MBP-BSU1 (Arabidopsis, UniProt Q9LR78 1-793). Put plainly: pull-down.

MBP-BSU1, sequence (Q9LR78 whole entry): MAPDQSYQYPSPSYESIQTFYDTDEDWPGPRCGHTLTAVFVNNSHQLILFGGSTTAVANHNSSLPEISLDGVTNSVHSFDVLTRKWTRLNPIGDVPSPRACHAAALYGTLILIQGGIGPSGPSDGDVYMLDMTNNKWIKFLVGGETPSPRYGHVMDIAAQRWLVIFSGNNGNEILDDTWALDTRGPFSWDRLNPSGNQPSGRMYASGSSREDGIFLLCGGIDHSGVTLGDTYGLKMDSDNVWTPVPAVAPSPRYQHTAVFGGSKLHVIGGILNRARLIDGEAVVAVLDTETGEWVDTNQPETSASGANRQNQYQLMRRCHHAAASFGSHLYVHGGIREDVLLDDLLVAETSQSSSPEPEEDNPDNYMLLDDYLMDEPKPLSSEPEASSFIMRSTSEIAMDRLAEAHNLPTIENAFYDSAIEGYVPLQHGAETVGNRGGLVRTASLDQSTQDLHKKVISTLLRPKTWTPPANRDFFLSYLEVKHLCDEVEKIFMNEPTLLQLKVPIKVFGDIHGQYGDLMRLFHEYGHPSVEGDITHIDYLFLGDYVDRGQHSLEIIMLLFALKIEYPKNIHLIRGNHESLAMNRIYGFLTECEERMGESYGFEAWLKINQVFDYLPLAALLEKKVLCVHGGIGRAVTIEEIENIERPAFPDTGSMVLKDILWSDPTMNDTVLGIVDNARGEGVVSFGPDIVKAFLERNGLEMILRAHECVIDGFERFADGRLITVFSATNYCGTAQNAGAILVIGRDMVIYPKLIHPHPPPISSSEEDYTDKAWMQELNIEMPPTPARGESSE

B1: BSK1-myc (natural protein, UniProt Q944A7 1-512, looked up)
chain: MGCCQSLFSGDNPLGKDGVQPQPLSQNNHGGATTADNGGSGGASGVGGGGGGGGIPSFSEFSFADLKAATNNFSSDNIVSESGEKAPNLVYKGRLQNRRWIAVKKFTKMAWPEPKQFAEEAWGVGKLRHNRLANLIGYCCDGDERLLVAEFMPNDTLAKHLFHWENQTIEWAMRLRVGYYIAEALDYCSTEGRPLYHDLNAYRVLFDEDGDPRLSCFGLMKNSRDGKSYSTNLAYTPPEYLRNGRVTPESVTYSFGTVLLDLLSGKHIPPSHALDMIRGKNIILLMDSHLEGKFSTEEATVVVELASQCLQYEPRERPNTKDLVATLAPLQTKSDVPSYVMLGIKKQEEAPSTPQRPLSPLGEACSRMDLTAIHQILVMTHYRDDEGTNELSFQEWTQQMKDMLDARKRGDQSFREKDFKTAIDCYSQFIDVGTMVSPTVFGRRSLCYLLCDQPDAALRDAMQAQCVYPDWPTAFYMQSVALAKLNMNTDAADMLNEAAQLEEKRQRGGRGS
As for B1, the binding result is reported as “binds”.
